Biological target: c-MYC:MAX bHLHZip heterodimer (MYC 352-437, MAX 22-102) (human, UniProt P01106-1 352-437; P61244 22-102)
Assay: NMR titration; unlabeled MYC:MAX dimer titrated into 15N-labeled INI1 RPT1 (147 uM); 1H,15N HSQC; fast exchange; shifts fitted to a single-site binding curve; 25 °C
Conditions: both partners purified

Sequence of c-MYC:MAX bHLHZip heterodimer (MYC 352-437, MAX 22-102) (P01106 367-452, chain 1 of 2): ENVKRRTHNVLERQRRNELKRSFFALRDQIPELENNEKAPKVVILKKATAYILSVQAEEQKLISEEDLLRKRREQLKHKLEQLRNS
Sequence of c-MYC:MAX bHLHZip heterodimer (MYC 352-437, MAX 22-102) (P61244 22-102, chain 2 of 2): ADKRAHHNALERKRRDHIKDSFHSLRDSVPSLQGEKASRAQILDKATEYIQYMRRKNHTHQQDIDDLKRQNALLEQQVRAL

B1: INI1/hSNF5 RPT1 (residues 184-258) (domain or fragment, human, UniProt Q12824 184-258, looked up)
chain: EVLVPIRLDMEIDGQKLRDAFTWNMNEKLMTPEMFSEILCDDLDLNPLTFVPAIASAIRQQIESYPTDSILEDQS
- Kd: 44 ± 6 µM
